Assay results reported in US20140051633A1.

Assays:
[1] = target: Hepatocyte Growth Factor (HGF), species not stated (Homo sapiens (Human)) (UniProt P14210); test: ^3H Dihexa binding to HGF (FIG. 43), repeated in the text
[2] = target: Hepatocyte Growth Factor (HGF), species not stated (Homo sapiens (Human)) (UniProt P14210); test: ^3H Dihexa incubated with different concentrations of HGF, Biogel P6 columns, scintillation counting
[3] = target: human Hepatocyte Growth Factor (HGF) (human) (UniProt P14210); test: competition with ^3H-Hinge for soluble HGF
human Hepatocyte Growth Factor (HGF) (human), sequence (P14210 32-728 limits assumed): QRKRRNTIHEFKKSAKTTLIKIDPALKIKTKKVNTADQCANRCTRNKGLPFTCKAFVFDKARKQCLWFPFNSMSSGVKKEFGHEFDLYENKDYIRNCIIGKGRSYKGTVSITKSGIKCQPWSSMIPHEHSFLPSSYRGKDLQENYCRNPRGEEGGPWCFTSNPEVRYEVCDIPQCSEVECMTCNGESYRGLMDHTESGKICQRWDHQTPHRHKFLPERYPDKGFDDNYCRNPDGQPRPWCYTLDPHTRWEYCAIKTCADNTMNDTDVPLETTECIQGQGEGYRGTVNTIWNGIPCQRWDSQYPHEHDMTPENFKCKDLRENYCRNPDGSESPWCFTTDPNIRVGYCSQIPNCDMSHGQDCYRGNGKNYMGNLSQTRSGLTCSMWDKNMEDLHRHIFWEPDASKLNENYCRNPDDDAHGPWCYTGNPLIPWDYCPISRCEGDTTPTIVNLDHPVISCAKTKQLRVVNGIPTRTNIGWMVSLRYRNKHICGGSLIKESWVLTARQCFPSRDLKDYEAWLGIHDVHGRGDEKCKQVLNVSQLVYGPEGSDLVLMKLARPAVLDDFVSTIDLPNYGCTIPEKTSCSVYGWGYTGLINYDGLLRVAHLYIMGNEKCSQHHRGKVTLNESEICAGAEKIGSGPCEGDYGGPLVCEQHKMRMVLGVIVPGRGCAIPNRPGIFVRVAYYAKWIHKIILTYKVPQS

[4] = target: human Hepatocyte Growth Factor (HGF) (human) (UniProt P14210); test: competition with ^3H-Hinge for soluble HGF (1.25 ng), Bio-Gel P6 spin columns, scintillation counting

Hepatocyte Growth Factor (HGF), species not stated (Homo sapiens (Human)), sequence (P14210 32-494 limits assumed, form in doubt, chain 1 of 2): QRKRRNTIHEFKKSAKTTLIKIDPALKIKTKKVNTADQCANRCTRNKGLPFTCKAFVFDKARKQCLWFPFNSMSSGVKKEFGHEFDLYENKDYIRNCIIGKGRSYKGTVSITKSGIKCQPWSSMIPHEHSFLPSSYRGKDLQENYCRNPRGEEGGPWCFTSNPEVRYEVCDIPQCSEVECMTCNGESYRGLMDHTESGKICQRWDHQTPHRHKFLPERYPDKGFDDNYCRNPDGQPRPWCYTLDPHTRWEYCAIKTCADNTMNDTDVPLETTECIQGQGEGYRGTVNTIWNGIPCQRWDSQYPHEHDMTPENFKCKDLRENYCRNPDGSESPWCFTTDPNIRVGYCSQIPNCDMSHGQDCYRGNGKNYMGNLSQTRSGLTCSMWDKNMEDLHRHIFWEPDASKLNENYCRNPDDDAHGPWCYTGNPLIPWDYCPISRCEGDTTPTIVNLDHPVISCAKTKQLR
Hepatocyte Growth Factor (HGF), species not stated (Homo sapiens (Human)), sequence (P14210 495-728 limits assumed, form in doubt, chain 2 of 2): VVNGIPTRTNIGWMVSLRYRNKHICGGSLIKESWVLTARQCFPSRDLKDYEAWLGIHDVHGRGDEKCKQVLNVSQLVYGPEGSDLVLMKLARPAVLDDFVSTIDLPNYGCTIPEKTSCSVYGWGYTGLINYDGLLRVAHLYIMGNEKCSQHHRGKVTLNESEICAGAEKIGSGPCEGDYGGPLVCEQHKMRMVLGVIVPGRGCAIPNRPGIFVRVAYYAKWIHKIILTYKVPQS

Kd [1] | Kd [2] | Ki [3] | Ki [4] | Substance
0.00022 nM | 0.000221 nM |  |  | Dihexa (N-hexanoic-Tyr-Ile-(6)-aminohexanoic amide) (peptide)
 |  | 0.133 nM | 0.133 nM | D-Nle-Cys-Ile-NH-(CH2)5-CONH2 (peptide)
 |  | 137 nM | 138 nM | D-Nle-Met-Ile-NH-(CH2)5-CONH2 (peptide)
 |  |  | 3.37 nM | D-Nle-Trp-Ile-NH-(CH2)5-CONH2 (peptide)
